First the molecules themselves.
B1: 2B23 IgG (antibody, V domains shown)
VH: EVQLLESGGGLVQPGGSLRLSCAASGFTFSNYPMSWVRQAPGKGLAWVSSLTASGDNTFYADSVKGRFTISRDNSNNTLYLQMHSLRAEDTAVYYCAKALVGRYDISTGYYRPVMDSWGQGTLVTVSS
VL: DIQMTQSPPSLSASVGDRVTITCRTSQGFTSALAWYQQKPGEPPKLLIYDASKLESGVPSRFSGSGSGTNFALTISSLQPEDFATYFCQQSNSYPLTFGGGTKVEIKR
B2: B11E8 IgG (antibody, V domains shown)
VH: EVQLVQSGGGVVQPGRSLRLSCAASGFIFRTYGMHWVRQAPGKGLEWVAFVSSDGNNKFYSDSVKGRFTISRDNAKNTLYLQMNSLETEDTAMYYCAKDRYPIDCSGGSCFSYGMDVWGQGTTVTVSS
VL: EIVLTQSPATLSVSPGERATLSCRASQSVSKFLAWYQQKRGQAPRLLIYGASTRATGIPARFSGSGSGTEFALTISSLQSEDFADYYCQQYDNWPITFGQGTRLEIKR
B3: 2B25.1 IgG (antibody, V domains shown)
VH: QVQLQESGPGLVKPSQTLSLSCSVSGASITSGTFYWSWIRQHPGKDLEWIGYIYYSGTTYYNPSLKSRVTLSVDTSKNQFSLKVTSLTAADTAVYHCARGVPIYDSSGTYRGTYFDYWGQGTLVTVSS
VL: ESVLTQPPSVSAAPGQKVTISCSGSSSNIGNNYVSWYQQLPGTAPKLLIYDNNRRPSGIPDRFSGSKSGTSATLGITGLQTGDEADYYCGTWDSSLSEVVFGGGTKVTVLG
B4: 1B18 IgG (antibody, V domains shown)
VH: EVQLVQSGGGLVQPGGSRRLSCAASGFYFNAYWMTWVRQAPGKGLEWVANINLDGTEIYYLDSVKGRFTVSRDNVKNSVFLQMSSLRVEDTAVYFCARLEWGGRNGWVSPWGQGTLVTVSS
VL: DVVMTQSPSSVSASVGDRVTITCRASQSISSYLNWYQQRPGKAPKLLIFAASSLQSAVPSRFSGSGSGTDFTLTISSLQPEDFATYYCQQSYSTPPTFGQGTKVEIKR
B5: 1B22 IgG (antibody, V domains shown)
VH: QVQLQESGSRLVKPSQTLSLTCGVSGGSISSSSYSWSWIRQTPGKGLEWIGYIYHSGSTYYNPSLKSRVTMSVDKSRNQFSLNMSSVTAADTAVYYCARTAFYYENTGPIRCYLDFWGQGTLVTVSS
VL: DIQMTQSPSTLSASIGDRVTISCRASQSIQSWLAWYQQRPGEAPKLLIYSASTLQTGVPSRFSGSGSGTDFTLTISSLQPEDFATYYCQQYNSYPLTFGQGTKLEIK
B6: B12.1 IgG (antibody, V domains shown)
VH: QVNLRESGGGVVQPGRSLRLSCAASGFTFSSYALHWVRQTPGKGLEWVALISYDGSNKYYADSVKGRFTISRDNSKNMLYLQMNSLRAEDTAVYYCAKDRSHYGDYVGYLDYWGQGTLVTVSS
VL: AYVLTQPPSVSVAPGKTAAITCEGNNVGNKNVHWYQQRPGQAPVLVVHDDSDRPSGIPERFSGSNSGNTATLTINRVEAGDEADYYCQVWDSSSAQWVFGGGTKLTVLG
B7: 1B10.1 IgG (antibody, V domains shown)
VH: QVQLVESGGGVVQPGRSLRLSCAASGFTFSHYGMHWVRQSPGKGLEWVAVIWYDGRNPYYAASVKGRFTISRDNDKNTLYLQMNSLRAEDTAVYYCVKDLTRFHDTTFGVFEMWGPGTTVTVSS
VL: EIVLTQSPSFVSASVGDRVTITCRASQGISSWLAWYQQKPGKAPKLLIYAASSLQSGVPSRFSGSGSGTEFTLTISSLQPDDFATYYCQQYSSLYTFGQGTKVDIKR
B8: B11 scFv (scFv)
scFv: QVQLLQSAGGVVQPGRSLRLSCAASGFIFRTYGMHWVRQAPGKGLEWVAFVSSDGNNKFYSDSVKGRFTIPRDNAKNTLYLQMNSLETEDTAVYYCAKDRYPIDCSGGSCFSYGMDVWGQGTTVTVSSGGGGSGGGGSGGGGSDIVMTQSPSTLSASVGDRVTVTCRASQSINSWLAWYQQKPGKAPKLLIYEASSLESGVPSRFSGSGSGTEFTLTISSLQPDDFATYYCQQYDSYWLTFGGGTKVEIK
B9: B11E8 scFv (scFv)
scFv: EVQLVQSGGGVVQPGRSLRLSCAASGFIFRTYGMHWVRQAPGKGLEWVAFVSSDGNNKFYSDSVKGRFTISRDNAKNTLYLQMNSLETEDTAMYYCAKDRYPIDCSGGSCFSYGMDVWGQGTTVTVSSGGGGSGGGGSGGGGSEIVLTQSPATLSVSPGERATLSCRASQSVSKFLAWYQQKRGQAPRLLIYGASTRATGIPARFSGSGSGTEFALTISSLQSEDFADYYCQQYDNWPITFGQGTRLEIK
B10: 2B30 scFv (scFv)
scFv: EVQLVESGGGVVQPGRSLRLSCAASGFTFRRNAIHWVRQAPGKGLEWVAVISYDGVNKYYAASVKGRFAISRDNAKNTLFLQMNSLRPEDSAIYYCARDVSEYGDYVGHFDYWGQGTLVTVSSGGGGSGGGGSGGGGSSYELMQLPSASGTPGQRVSISCSGSSSNIGSNPVNWYQQLPGTAPKLLIYSNNHRPSGVPDRFSGSKSGTSASLAISGLQSEDEADYYCAAWDGSLNGHVVFGGGTKLTVL
B11: B6 scFv (scFv)
scFv: QVQLVQSGAEVKKPGESLVISCKASGDKDTFTSFWIAWVRQMPGKGLEWMGIIYAGDSDTRYSPSFQGHVNISVDRSTNTAYLQWSSLKASDTAMYYCARHDSRYKYFYFGMDVWGQGTTVTVSSGGGGSGGGGSGGGGSDVVMTQSPSSLSASVGDRITITCQAGQDISNFLNWYQQKPGKAPKLLIRDASNLETGVPSRFSGGGSGTHFTFTISSLHPEDIATYFCQQYDNLPYTFGQGTKLEIK
B12: B11 Fab (Fab, V domains shown)
VH: B2 VH with E1Q, V5L, G8A, S71P, M93V
VL: DIVMTQSPSTLSASVGDRVTVTCRASQSINSWLAWYQQKPGKAPKLLIYEASSLESGVPSRFSGSGSGTEFTLTISSLQPDDFATYYCQQYDSYWLTFGGGTKVEIKR
B13: B11E8 Fab (Fab, V domains shown)
VH: B2 VH
VL: B2 VL

Our source for the Kd and fold higher affinity than the scFv values is patent US20150197559A1.

Numbering of substitutions follows the chain as printed.

For the first assay, the target named is BoNT/B3 (Clostridium botulinum). The assay can be described thus: KinExA flow fluorimetry, IgG in solution. Background: Kinetic exclusion samples the free partner from a solution-phase mixture.
For B1, the Kd was 0.048 nM.

With B2, the Kd is 0.0156 nM.

As for B3, the Kd turned out to be 0.0177 nM.

The molecule B4 came in with a Kd of 0.972 nM.

For the molecule B5, the Kd was found to be 0.221 nM.

B6: the Kd worked out at 0.0462 nM.

As to B7, the Kd worked out at 1.2 nM.

Another assay has as its target BoNT/B4 (Clostridium botulinum). Description: KinExA flow fluorimetry, IgG in solution.
Molecule B1 returned a Kd of 0.0552 nM.

As for B3, the Kd was 0.03 nM.

Molecule B4 showed a Kd of 0.021 nM.

B5 registered a Kd of 0.129 nM.

On to B6, for which the Kd amounted to 0.625 nM.

For the molecule B7, the Kd was 0.00047 nM.

Another assay concerns the target BoNT/B2 (Clostridium botulinum). The assay can be described thus: KinExA flow fluorimetry, IgG in solution.
Take B1: the dissociation constant (Kd) was found to be 0.0453 nM.

In turn, B2 came in with a Kd of 0.0181 nM.

Turning to B3, the Kd is 0.0532 nM.

Take B4: the Kd was found to be 0.817 nM.

Regarding B5, the Kd is 0.319 nM.

B6: the Kd was determined as 0.0162 nM.

The molecule B7 gave a Kd of 0.00031 nM.

Another assay has the same target. The assay can be described thus: flow cytometry, yeast-displayed scFv, soluble toxin. In general terms: Flow cytometry measures light scatter and fluorescence of single cells or particles in a stream.
Turning to B8, the Kd was 2.11 nM.

B9 displayed a Kd of 0.189 nM.

Take B10: the Kd was determined as 0.19 nM.

Molecule B11 gave a Kd of 1.77 nM.

Another assay has the same target. The assay can be described thus: flow cytometry, yeast-displayed Fab against yeast-displayed scFv.
The molecule B12 had a fold higher affinity than the scFv of 1.46 fold.

The next assay shares this target. Description: flow cytometry, yeast-displayed Fab, soluble toxin.
For the molecule B13, the Kd came out at 0.166 nM.

As usually defined, the Kd is a measure of binding affinity in units of concentration.
